Source: paper doi:10.1101/2025.06.17.660062 (bioRxiv, 2025)

Tests used:
[1] = target: mCherry-RZZ (ROD-Zwilch-ZW10 complex, wild type) (UniProt P50748 1-2209; Q9H900 1-591; O43264 1-779); experiment: SEC
[2] = target: R^EEZZ (RZZ with phosphomimetic ROD T13E-S15E) (UniProt P50748 1-2209; Q9H900 1-591; O43264 1-779, T13E | S15E); experiment: pull-down
Chain of R^EEZZ (RZZ with phosphomimetic ROD T13E-S15E) (P50748 whole entry T13E/S15E, chain 1 of 3): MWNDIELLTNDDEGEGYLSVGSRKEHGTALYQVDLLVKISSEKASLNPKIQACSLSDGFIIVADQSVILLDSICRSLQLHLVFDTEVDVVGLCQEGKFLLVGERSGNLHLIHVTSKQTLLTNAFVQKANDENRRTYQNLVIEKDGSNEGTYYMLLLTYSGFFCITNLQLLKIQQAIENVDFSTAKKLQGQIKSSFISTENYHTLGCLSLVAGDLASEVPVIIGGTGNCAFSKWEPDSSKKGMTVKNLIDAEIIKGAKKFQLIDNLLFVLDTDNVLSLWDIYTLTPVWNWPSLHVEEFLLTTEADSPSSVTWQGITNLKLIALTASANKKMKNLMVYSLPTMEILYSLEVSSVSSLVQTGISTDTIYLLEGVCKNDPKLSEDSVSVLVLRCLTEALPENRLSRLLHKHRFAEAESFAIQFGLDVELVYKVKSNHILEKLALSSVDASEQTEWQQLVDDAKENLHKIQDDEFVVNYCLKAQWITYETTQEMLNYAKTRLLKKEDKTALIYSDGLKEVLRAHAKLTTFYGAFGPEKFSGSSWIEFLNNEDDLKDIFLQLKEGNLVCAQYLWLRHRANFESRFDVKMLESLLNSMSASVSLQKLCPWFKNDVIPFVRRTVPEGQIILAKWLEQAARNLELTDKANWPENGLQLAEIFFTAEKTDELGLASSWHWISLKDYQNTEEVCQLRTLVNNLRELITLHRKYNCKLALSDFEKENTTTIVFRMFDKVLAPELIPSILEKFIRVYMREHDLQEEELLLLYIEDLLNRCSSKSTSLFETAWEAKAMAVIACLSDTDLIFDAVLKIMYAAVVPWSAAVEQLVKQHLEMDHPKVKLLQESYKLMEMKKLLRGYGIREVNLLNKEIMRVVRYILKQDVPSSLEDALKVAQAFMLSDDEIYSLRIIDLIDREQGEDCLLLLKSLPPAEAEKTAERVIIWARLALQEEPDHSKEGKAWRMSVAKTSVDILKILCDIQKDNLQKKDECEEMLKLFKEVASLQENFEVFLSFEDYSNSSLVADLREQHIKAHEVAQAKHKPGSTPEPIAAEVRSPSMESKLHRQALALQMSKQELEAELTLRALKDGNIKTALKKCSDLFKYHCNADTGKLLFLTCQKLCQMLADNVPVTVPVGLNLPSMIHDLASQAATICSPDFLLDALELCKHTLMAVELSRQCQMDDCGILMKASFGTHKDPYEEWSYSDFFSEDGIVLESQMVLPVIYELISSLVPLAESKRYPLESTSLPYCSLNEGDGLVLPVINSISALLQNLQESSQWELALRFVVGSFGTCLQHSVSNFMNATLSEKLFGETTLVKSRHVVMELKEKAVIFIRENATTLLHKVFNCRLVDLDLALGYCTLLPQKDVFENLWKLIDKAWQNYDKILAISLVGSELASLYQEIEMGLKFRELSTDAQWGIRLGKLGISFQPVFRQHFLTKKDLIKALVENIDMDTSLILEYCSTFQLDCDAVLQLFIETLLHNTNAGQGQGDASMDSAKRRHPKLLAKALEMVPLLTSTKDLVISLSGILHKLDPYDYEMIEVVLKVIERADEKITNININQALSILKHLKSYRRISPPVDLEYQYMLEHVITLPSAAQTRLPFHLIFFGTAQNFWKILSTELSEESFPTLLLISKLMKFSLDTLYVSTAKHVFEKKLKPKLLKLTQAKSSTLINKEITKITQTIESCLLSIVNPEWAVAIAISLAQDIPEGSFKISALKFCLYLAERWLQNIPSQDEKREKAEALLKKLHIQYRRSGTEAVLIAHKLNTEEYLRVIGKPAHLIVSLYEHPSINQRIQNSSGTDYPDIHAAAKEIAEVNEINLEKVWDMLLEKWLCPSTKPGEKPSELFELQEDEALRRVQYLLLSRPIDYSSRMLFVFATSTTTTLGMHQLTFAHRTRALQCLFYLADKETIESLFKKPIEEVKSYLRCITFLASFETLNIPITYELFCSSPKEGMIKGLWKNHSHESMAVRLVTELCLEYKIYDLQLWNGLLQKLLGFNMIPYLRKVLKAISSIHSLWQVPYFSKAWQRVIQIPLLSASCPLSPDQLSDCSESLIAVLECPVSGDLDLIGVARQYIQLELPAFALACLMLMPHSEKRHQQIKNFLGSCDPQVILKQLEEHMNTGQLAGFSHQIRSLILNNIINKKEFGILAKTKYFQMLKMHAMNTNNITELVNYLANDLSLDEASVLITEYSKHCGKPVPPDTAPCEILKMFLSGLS
Chain of R^EEZZ (RZZ with phosphomimetic ROD T13E-S15E) (Q9H900 whole entry, chain 2 of 3): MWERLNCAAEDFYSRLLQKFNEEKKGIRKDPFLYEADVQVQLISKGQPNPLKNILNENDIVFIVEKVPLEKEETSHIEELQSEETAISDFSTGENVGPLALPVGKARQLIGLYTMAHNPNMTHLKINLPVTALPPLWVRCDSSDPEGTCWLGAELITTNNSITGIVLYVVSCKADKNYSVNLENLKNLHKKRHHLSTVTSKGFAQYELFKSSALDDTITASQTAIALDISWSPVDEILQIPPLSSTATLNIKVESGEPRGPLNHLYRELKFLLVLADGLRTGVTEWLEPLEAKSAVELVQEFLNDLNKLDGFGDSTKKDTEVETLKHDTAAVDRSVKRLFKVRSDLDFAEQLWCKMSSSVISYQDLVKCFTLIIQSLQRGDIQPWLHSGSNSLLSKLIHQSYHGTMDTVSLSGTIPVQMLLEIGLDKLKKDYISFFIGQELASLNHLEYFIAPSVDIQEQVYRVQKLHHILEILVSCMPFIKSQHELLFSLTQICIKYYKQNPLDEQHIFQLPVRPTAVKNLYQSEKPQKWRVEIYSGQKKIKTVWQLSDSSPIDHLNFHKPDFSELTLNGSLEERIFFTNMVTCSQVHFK
Chain of R^EEZZ (RZZ with phosphomimetic ROD T13E-S15E) (O43264 whole entry, chain 3 of 3): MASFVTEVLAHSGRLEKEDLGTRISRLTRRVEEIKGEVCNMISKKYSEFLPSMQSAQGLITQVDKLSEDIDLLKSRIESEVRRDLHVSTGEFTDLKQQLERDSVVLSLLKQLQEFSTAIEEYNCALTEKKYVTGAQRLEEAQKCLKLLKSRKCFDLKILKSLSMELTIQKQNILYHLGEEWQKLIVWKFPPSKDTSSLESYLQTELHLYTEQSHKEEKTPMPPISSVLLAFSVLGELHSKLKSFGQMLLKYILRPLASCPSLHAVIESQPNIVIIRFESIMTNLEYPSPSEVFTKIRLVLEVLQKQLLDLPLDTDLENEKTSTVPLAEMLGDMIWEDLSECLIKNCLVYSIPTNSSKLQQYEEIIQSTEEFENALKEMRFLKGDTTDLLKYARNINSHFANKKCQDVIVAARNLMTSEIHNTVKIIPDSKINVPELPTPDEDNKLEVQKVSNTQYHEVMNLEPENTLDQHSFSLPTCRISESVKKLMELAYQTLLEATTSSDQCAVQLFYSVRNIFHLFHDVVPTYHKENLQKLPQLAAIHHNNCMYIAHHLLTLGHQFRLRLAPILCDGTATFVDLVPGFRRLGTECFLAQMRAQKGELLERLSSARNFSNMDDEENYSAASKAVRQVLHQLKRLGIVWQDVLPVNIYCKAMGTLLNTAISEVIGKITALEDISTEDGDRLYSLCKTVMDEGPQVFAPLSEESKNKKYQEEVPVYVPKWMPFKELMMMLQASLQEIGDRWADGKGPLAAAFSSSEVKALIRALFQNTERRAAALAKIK

Chain of mCherry-RZZ (ROD-Zwilch-ZW10 complex, wild type) (P50748 whole entry, chain 1 of 3): as the sequence (P50748 whole entry T13E/S15E, chain 1 of 3) above, with E13T, E15S counted along it
Chain of mCherry-RZZ (ROD-Zwilch-ZW10 complex, wild type) (Q9H900 whole entry, chain 2 of 3): as the sequence (Q9H900 whole entry, chain 2 of 3) above
Chain of mCherry-RZZ (ROD-Zwilch-ZW10 complex, wild type) (O43264 whole entry, chain 3 of 3): as the sequence (O43264 whole entry, chain 3 of 3) above

- binding result [1]: binds
- binding result [2]: binds
B1: GST-BUB1^467-521 (domain or fragment, UniProt O43683 467-521, looked up)
chain: ALGFIMNMFQAPTLPDISDDKDEWQSLDQNEDAFEAQFQKNVRSSGAWGVNKIIS
